# Laboratory results: PMC4155600 (Journal of nucleic acids investigation, 2013)
# Like-named read-outs stand apart in the source and are kept apart here.
# T1: SpPot1-DBD (Schizosaccharomyces pombe, UniProt O13988 1-389)
# T1 sequence: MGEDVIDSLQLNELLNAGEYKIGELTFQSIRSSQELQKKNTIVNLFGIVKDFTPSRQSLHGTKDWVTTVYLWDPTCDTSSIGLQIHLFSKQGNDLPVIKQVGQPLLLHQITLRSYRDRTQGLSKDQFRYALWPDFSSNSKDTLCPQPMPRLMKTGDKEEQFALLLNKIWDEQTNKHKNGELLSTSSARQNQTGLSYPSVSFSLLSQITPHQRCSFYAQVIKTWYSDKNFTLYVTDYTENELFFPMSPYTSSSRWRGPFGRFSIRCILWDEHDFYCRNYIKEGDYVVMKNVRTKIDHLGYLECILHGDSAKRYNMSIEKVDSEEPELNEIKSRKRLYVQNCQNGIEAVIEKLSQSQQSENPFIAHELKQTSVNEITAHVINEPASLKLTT
# T2: Cdc13 (Saccharomyces cerevisiae, UniProt P32797 1-924)
# T2 sequence: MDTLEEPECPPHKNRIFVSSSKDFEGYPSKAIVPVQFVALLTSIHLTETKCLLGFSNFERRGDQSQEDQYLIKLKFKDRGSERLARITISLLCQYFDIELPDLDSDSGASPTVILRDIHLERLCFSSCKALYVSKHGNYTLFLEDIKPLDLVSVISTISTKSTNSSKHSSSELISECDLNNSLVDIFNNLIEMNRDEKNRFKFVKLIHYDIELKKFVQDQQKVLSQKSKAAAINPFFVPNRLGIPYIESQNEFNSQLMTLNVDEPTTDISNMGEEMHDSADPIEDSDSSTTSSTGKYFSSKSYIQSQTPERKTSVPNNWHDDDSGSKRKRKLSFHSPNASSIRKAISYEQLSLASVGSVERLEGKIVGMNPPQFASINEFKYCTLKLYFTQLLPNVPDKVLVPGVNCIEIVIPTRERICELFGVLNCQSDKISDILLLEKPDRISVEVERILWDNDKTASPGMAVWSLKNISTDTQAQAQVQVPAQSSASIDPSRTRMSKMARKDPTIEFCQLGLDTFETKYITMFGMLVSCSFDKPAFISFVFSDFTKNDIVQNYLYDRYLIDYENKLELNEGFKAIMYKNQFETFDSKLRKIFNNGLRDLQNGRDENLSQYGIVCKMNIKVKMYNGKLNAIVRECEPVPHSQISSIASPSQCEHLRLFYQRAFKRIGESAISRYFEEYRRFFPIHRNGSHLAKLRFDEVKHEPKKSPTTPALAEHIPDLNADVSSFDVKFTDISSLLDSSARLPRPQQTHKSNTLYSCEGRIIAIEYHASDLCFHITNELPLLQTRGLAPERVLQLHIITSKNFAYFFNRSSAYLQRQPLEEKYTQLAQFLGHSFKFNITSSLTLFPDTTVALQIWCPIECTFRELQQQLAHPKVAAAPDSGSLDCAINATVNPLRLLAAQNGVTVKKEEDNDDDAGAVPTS
# T3: SpPot1 (Schizosaccharomyces pombe, UniProt O13988 1-555)
# T3 sequence: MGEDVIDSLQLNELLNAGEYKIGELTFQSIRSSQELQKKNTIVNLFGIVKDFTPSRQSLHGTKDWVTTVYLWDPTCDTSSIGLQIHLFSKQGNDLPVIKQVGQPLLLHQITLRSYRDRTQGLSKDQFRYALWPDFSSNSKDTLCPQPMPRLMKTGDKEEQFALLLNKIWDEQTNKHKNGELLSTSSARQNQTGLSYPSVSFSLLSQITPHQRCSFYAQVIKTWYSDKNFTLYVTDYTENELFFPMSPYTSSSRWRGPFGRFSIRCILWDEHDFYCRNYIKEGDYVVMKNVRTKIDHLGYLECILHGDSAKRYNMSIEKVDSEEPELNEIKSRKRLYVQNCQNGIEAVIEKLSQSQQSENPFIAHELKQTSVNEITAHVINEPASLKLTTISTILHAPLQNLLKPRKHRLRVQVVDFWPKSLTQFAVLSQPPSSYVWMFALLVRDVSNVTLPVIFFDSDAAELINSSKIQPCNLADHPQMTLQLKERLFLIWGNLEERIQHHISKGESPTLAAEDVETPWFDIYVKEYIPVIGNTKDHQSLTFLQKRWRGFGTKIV
# Legend:
# SpPot1-DBD [1] = molecular target: T1, SpPot1-DBD; test: EMSA
# native gel or EMSA = molecular target: the molecule itself; test: native gel or EMSA
# Cdc13 = molecular target: T2, Cdc13; test: EMSA
# SpPot1 [2] = molecular target: T3, SpPot1; test: filter binding
# SpPot1 [3] = molecular target: T3, SpPot1; test: filter binding; remark: listed apart in the source
# SpPot1 [4] = molecular target: T3, SpPot1; test: filter binding; remark: listed apart in the source
# SpPot1 [5] = molecular target: T3, SpPot1; test: filter binding; remark: listed apart in the source
# SpPot1 [6] = molecular target: T3, SpPot1
# SpPot1-DBD [7] = molecular target: T1, SpPot1-DBD; test: EMSA; remark: listed apart in the source
# SpPot1-DBD [8] = molecular target: T1, SpPot1-DBD; test: EMSA; remark: listed apart in the source
# SpPot1-DBD [9] = molecular target: T1, SpPot1-DBD; test: EMSA; remark: listed apart in the source
# SpPot1-DBD [10] = molecular target: T1, SpPot1-DBD; test: EMSA; remark: listed apart in the source
# SpPot1-DBD [11] = molecular target: T1, SpPot1-DBD; test: EMSA; remark: listed apart in the source
# SpPot1-DBD [12] = molecular target: T1, SpPot1-DBD; test: EMSA; remark: listed apart in the source
binder,measurement,setting,value
GGTTA (ssDNA) [d(GGTTA) 5mer],Kd,SpPot1-DBD [1],~10000 pM
"Saccharomyces cerevisiae Cdc13 (1–924), full-length protein (natural protein, UniProt P32797 1-924, looked up) MDTLEEPECPPHKNRIFVSSSKDFEGYPSKAIVPVQFVALLTSIHLTETKCLLGFSNFERRGDQSQEDQYLIKLKFKDRGSERLARITISLLCQYFDIELPDLDSDSGASPTVILRDIHLERLCFSSCKALYVSKHGNYTLFLEDIKPLDLVSVISTISTKSTNSSKHSSSELISECDLNNSLVDIFNNLIEMNRDEKNRFKFVKLIHYDIELKKFVQDQQKVLSQKSKAAAINPFFVPNRLGIPYIESQNEFNSQLMTLNVDEPTTDISNMGEEMHDSADPIEDSDSSTTSSTGKYFSSKSYIQSQTPERKTSVPNNWHDDDSGSKRKRKLSFHSPNASSIRKAISYEQLSLASVGSVERLEGKIVGMNPPQFASINEFKYCTLKLYFTQLLPNVPDKVLVPGVNCIEIVIPTRERICELFGVLNCQSDKISDILLLEKPDRISVEVERILWDNDKTASPGMAVWSLKNISTDTQAQAQVQVPAQSSASIDPSRTRMSKMARKDPTIEFCQLGLDTFETKYITMFGMLVSCSFDKPAFISFVFSDFTKNDIVQNYLYDRYLIDYENKLELNEGFKAIMYKNQFETFDSKLRKIFNNGLRDLQNGRDENLSQYGIVCKMNIKVKMYNGKLNAIVRECEPVPHSQISSIASPSQCEHLRLFYQRAFKRIGESAISRYFEEYRRFFPIHRNGSHLAKLRFDEVKHEPKKSPTTPALAEHIPDLNADVSSFDVKFTDISSLLDSSARLPRPQQTHKSNTLYSCEGRIIAIEYHASDLCFHITNELPLLQTRGLAPERVLQLHIITSKNFAYFFNRSSAYLQRQPLEEKYTQLAQFLGHSFKFNITSSLTLFPDTTVALQIWCPIECTFRELQQQLAHPKVAAAPDSGSLDCAINATVNPLRLLAAQNGVTVKKEEDNDDDAGAVPTS",stoichiometry N,native gel or EMSA,2
GTGTGGGTGTG (ssDNA) [Tel11],Kd,Cdc13,13.4 ± 0.8 pM
GGTTACGGTTAC (ssDNA) [12mer],Kd,SpPot1 [2],14 pM
same,Kd,SpPot1 [3],700 pM
same,Kd,SpPot1 [4],130 pM
same,Kd,SpPot1 [5],100 pM
same,Kd,SpPot1 [6],6.7 ± 0.9 pM
GGTTACGGTTACGGT (ssDNA) [15mer],Kd,SpPot1-DBD [7],5 pM
same,Kd,SpPot1-DBD [8],10.3 pM
same,Kd,SpPot1-DBD [9],4.2 pM
same,Kd,SpPot1 [6],5.2 ± 0.5 pM
same,Kd,SpPot1-DBD [10],4.9 ± 0.8 pM
same,Kd,SpPot1-DBD [11],1.5 pM
same,Kd,SpPot1-DBD [12],1.6 pM
